Test results taken from US20190225661A1.

Target: non-specific polyclonal IgG
Experiment: non-specific polyclonal IgG (2 ug/ml) added as bait, protein A Sepharose pull-down, deoxycholate release, HGF ELISA

## Hepatocyte Growth Factor (HGF) in human epicardial-derived cell-conditioned medium (EPI CdM) (ligand)
  HGF recovered from beads after pull-down with IgG: 2.8 ng/mL
